Patent US20220340894A1 (CDR LIFE, published 2022)

Legend:
[1] = target: T1, HLA-A2/MAGE-A4 complex (HLA-A*02:01 extracellular domain, human β2m, MAGE-A4 peptide 230-239) (human, UniProt P04439 25-299 at identity 0.94); P61769 21-119); test: direct ELISA, plate coated with HLA-A2/MAGE-A4 complex, OD450 nm (top panel, 'Binding to HLA-A2/MAGE-A4', M0700-M0709)
T1 construct: also called MAGE-A4/HLA-A2 complex; pMHC
Experimental: (§1) All available hits were evaluated for their ability to bind MAGE-A4/HLA-A2 complex and a control peptide/HLA-A2 complex in a direct binding ELISA assay. […] Briefly, 96 well ELISA plates were coated with purified human MAGE-A4/HLA-A2 complex or control HLA-A2 complex. Serial dilutions of antibody molecules were added to the plate and detected by an anti-kappa light chain-HRP (Invitrogen) followed by goat anti-rabbit IgG(H+L) HRP (Southern Biotech). […] All tested molecules are rabbit-derived antibodies that are representative of antibodies identified from the nucleic acid libraries described herein.

[2] = target: T1, HLA-A2/MAGE-A4 complex (HLA-A*02:01 …); test: direct ELISA, plate coated with HLA-A2/MAGE-A4 complex, OD450 nm (second panel, 'Binding to HLA-A2/MAGE-A4', M0710-M0766)
Experimental: as §1

[3] = target: T2, MAGE-A4 peptide-HLA-A2 complex presented on cells (human); test: flow cytometry on T2 cells pulsed with MAGE-A4 peptide; relative MFI = binding over peptide loading (BB7.2)
T2 construct: whole, on cells; Used both for T2 cells pulsed with the peptide and for tumour cell lines that present it themselves; also called MAGE-A4 positive/HLA-A2 positive cells
Experimental: (§2) TAP-deficient T2 cells were pulsed with HLA-A2-restricted peptides (MAGE-A4 or control peptides) and incubated with MAGE-A4 binders followed by fluorophore-labeled specific detection antibodies and analysis by flow cytometry.
(§3) Briefly, T-B hybrid T2 cells were incubated with serum-free RPMI1640 medium containing MAGE-A4 or control peptides. […] Peptide loading efficiency was verified by using the ratio between median fluorescent intensity (MFI) of HLA-A2-binding antibody BB7.2 on peptide loaded T2 cells and MFI of unloaded T2 cells (>1). T2 cells were incubated with each of the specific antibodies followed by fluorophore-labeled detection antibodies (anti-kappa light chain or anti-Flag). The cells were fixed and fluorescence was measured by flow cytometry.

[4] = target: T3, control peptide 1 (Ctrl.1, …) displayed by HLA-A2 on T2 cells (human); test: flow cytometry on T2 cells pulsed with control peptide 1; relative MFI = binding over peptide loading (BB7.2)
T3 construct: whole, on cells
Experimental: as §2, §3

[5] = target: T4, control peptide 2 (Ctrl.2, …) displayed by HLA-A2 on T2 cells (human); test: flow cytometry on T2 cells pulsed with control peptide 2; relative MFI = binding over peptide loading (BB7.2)
T4 construct: whole, on cells
Experimental: as §2, §3

[6] = target: T3, control peptide 1 (Ctrl.1, …) displayed …; test: flow cytometry on T2 cells pulsed with control peptide 1; relative MFI = binding over peptide loading (BB7.2); antibody concentration not given
Experimental: as §2, §3

[7] = target: T5, control peptide 3 (Ctrl.3, …) displayed by HLA-A2 on T2 cells (human); test: flow cytometry on T2 cells pulsed with control peptide 3; relative MFI = binding over peptide loading (BB7.2); antibody concentration not given
T5 construct: whole, on cells
Experimental: as §2, §3

[8] = target: T4, control peptide 2 (Ctrl.2, …) displayed …; test: flow cytometry on T2 cells pulsed with control peptide 2; relative MFI = binding over peptide loading (BB7.2); antibody concentration not given
Experimental: as §2, §3

B1: M0702 (Fab, V domains shown)
VH: QEQLEESGGGLVTPGTPLTLTCTASGFSLSSYAMIWVRQAPGKGLEWIGTINDGGTAFYANWVKGRFTISRTSTTVDLKMTSPTTEDTATYFCARAYGSNGDVYWGYVNLWGQGTLVTVSS
VL: ELVMTQTPASVSEPVGGTVTIKCQASQSIGSNLAWYQQKPGQPPKLLIYAAANLASGVSSRFKGSRSGTEYTLTISGVQAADAATYYCQQGYSSSNVANVFGGGTELEILR
EC50 (read off the curve) [1]: ~600 pM

B2: M0766 (Fab, V domains shown)
VH: PEQLEESGGGLVTPGGVLTLTCTASGFSFSSYGVNWVRQAPGKGLEWIGFIFGDGTTYYANWAKGRFTISKTSTTVDLKMTSPTTEDTATYFCARDGYGGYDYIINLWGQGTLVTVSS
VL: AQVLTQTPASVSAAVGGTVSISCQSSQSVVNNNWLAWYQQKPGQPPKLLIYKASTLESGVPSRFKGSGSGTQFTLTISGVQADDAATYYCLGEFSCSSADCHAFGGGTELEILR
binding result [2]: binds

B3: M0705 (Fab, V domains shown)
VH: QQQLVESGGRLVTPGTPLTLTCTASGIDLNSNAMSWVRQGPGKGLEWIGDIWSGGYTDYASWAKGRFTISKTSTTVDLKMTSLTAADTATYFCARDRLAGDGVVDYDLWGQGTLVTVSS
VL: ELDMTQTPASVEVAVGGTVTIKCQASQNIYSNLAWYQQKPGQRPKLLIYGASTLASGVPSRFKGSGSGTEYTLTINGVQAADAATYYCQQGFSSSNVDNVFGGGTEVVVKR
binding result [1]: binds

B4: M0707 (Fab, V domains shown)
VH: QQQLEESGGGLVTPGTPLTLTCTVSGIDLSSYAMGWVRQAPGKGLEWIGTINDGGSAFYASWVKGRFTISRTSTTVDLKITSPTAEDTATYFCAKTYGTNGDVYWGYFNLWGQGTLVTVSS
VL: ELVMTQTPASVSEPVGGTVTIKCQASQSIGSNLAWYQQKPGQPPKLLIYYESILASGVPSRFSGSGSGTEYTLTISGAQADDAATYYCQQGYSSSNILNAFGGGTEVVVKR
binding result [1]: binds

B5: M0709 (Fab, V domains shown)
VH: QSVKESGGRLVTPGTPLTLTCTVSGFSLSNYAMSWVRQAPGKGLEYIGIVSSGGTTYYASWAKGRFTISKTSTTVDLKITSPTTEDTATYFCAKDLYYGPTTYSAFNLWGQGTLVTVSS
VL: SELVLTQPQSVSGSLGQTVSISCKRARDNIEDYYVHWYQQHPGKTPTIVIHKDDQRPSGVPDRFSGSIDSTSNSASLTITGLLAEDEADYFCQSFDNDASPVFGGGTQLTVTG
binding result [3]: binds
binding result [4]: binds
binding result [5]: binds
binding result [1]: binds

B6: M0763 (Fab, V domains shown)
VH: QSVKESGGRLVTPGTPLTLTCTVSGFSLSNYAMSWVRQAPGKGLEYIGIVSSGGTTYYASWAKGRFTISKTSTTVDLKITSPTTEDTATYFCAKDLYYGPTTYSAFNLWGQGTLVTVSS
VL: SELVLTQPASVQVNLGQTVSLTCTADTLSRSYASWYQLKPGQAPVLLIYRDTSRPSGVPDRFSGSSSGNTATLTISGAQAGDEGDYVCATSDGSGSNFQLFGGGTQLTVTG
binding result [3]: binds
binding result [2]: binds
binding result [6]: no binding
binding result [7]: no binding
binding result [8]: no binding
